The target of this assay is T1, GST-Ubc9 (S. pombe, UniProt P40984 1-157).
T1 sequence (looked up): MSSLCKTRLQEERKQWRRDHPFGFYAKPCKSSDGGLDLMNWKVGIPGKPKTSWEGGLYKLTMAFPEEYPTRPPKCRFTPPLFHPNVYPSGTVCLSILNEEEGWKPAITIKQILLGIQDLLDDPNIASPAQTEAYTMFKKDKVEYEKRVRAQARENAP
The assay can be described thus: pull-down.

B1: 6His-Rad60 SLD2 (domain or fragment, S. pombe, UniProt Q9USX3 332-406, looked up)
chain: KLITLLLRSSKSEDLRLSIPVDFTVKDLIKRYCTEVKISFHERIRLEFEGEWLDPNDQVQSTELEDEDQVSVVLD
Consider B1, for which the binding result was “binds”.

The values are drawn from paper PMC2711901 (Nature structural & molecular biology, 2009).
